Target: Delta-RBD (SARS-CoV-2, UniProt P0DTC2)
Assay: BLI

B1: sACE2_(2).S14-IgG1 (Fc fusion)
chain: QSTIEEQAKYFLDKFNHEAEDLFYQSSLASWNYNTNITEENVQNMNNAGDKWSAFLKEQSTTAQMYPLQEIQNLTVKLQLQALQQNGSSVLSEDKSKRLNTILNTMSTIYSTGKVCNPDNPQECLLLEPGLNEIMANSLDYNERLWAWESWRSEVGKQLRPLYEEYVVLKNEMARANHYEDYGDYWRGDYEVNGVDGYDYSRGQLIEDVEHTFEEIKPLYEHLHAYVRAKLMNAYPSYISPIGCLPAHLLGDMWGRFWTNLYSLTVPFGQKPNIDVTDAMVDQAWDAQRIFKEAEKFFVSVGLPNMTQGFWEYSMLTDPGNVQKAVCHPTAWDLGKGDFRILMCTKVTMDDFLTAHHEMGHIQYDMAYAAQPFLLRNGANEGFHEAVGEIMSLSAATPKHLKSIGLLSPDFQEDNETEINFLLKQALTIVGTLPFTYMLEKWRWMVFKGEIPKDQWMKKWWEMKREIVGVVEPVPHDETYCDPASLFHVSNDYSFIRYYTRTLYQFQFQEALCQAAKHEGPLHKCDISNSTEAGQKLFNMLRLGKSEPWTLALENVVGAKNMNVRPLLNYFEPLFTWLKDQNKNSFVGWSTDWSPYADQSIKVRISLKSALGDKAYEWNDNEMYLFRSSVAYAMRQYFLKVKNQTILFGEEDVRVANLKPRISFNFFVTAPKNVSDIIPRTEVEKAIRMSRSRINDAFRLNDSSLEFLGIQPTLG
B1 was tested, and the koff was 0.00087 s⁻¹.
